# Laboratory results as given in the RNAGym collection of RNA variant scans (doi:10.7554/elife.80360).
# B1: Hairpin Ribozyme (parent)
# chain: GUCCUCUUUCACGUGCGCGUGAAAGAGAGAAGUGAACCAGAGAAACACACGUUGUGGUAUAUUACCUGGUA
# Variants of: B1
# Experiment: self-cleavage, relative activity (ratio to wild type); higher = more cleavage; co-transcriptional
row,Variant,self-cleavage
1,GUCCUCUUUCACGUGCGCGUGAAAGAGAGAAGUGAACCAGAGAAACACCCAUUGUGGUAUAUUACCUGGUA [A49C G51A],0.0757
2,GUGCUCUUUCACGUACGCGUGAAAGAGAGAAGUGAACCAGAGAAACACACGUUGUGGUAUAUUACCUGGUA [C3G G15A],0.281
3,GUCCUCUUUCACGUGCGCGUGAAAGAGAGAAGUGAACCAGAGAAACACUCGUUGUGGUAUAUUACCUGUUA [A49U G69U],0.193
4,GUCCUCUUUGACGUACGCGUGAAAGAGAGAAGUGAACCAGAGAAACACACGUUGUGGUAUAUUACCUGGUA [C10G G15A],0.624
5,GUCCUCUUUCACGUGCGCGUGAAAGAGGGAAGUGAACCAGAGAAACACACGUUGUGGUGUAUUACCUGGUA [A28G A59G],0.181
6,GUCCUCUUUCACGUGCGCGUGAAAGAGAGAAGUGAACCAGAGAAAAACACGUUGUGGUAAAUUACCUGGUA [C46A U60A],0.0649
7,GUCCUCUUUCACGUGUGCGUGAAUGAGAGAAGUGAACCAGAGAAACACACGUUGUGGUAUAUUACCUGGUA [C16U A24U],1.02
8,GUCCUCUUUCACGUGCGCGUGAAAGAGAGAAGCGAACCAGAGAAACACACGUUGUGUUAUAUUACCUGGUA [U33C G57U],0.19
9,CUCCUCUUUCACGUGCGCGUGAAAGAGAGAAGUGAACCAGAUAAACACACGUUGUGGUAUAUUACCUGGUA [G1C G42U],0.145
10,GUCCUCUUUGACGUGCGCGUGAAAGAGAGAAGUGAACCAGAGAAACACACGUUGUGGUAUAUUACCUAGUA [C10G G68A],0.172
11,GUCCUCUUACACGUGCGCGUGAAAGAGAGAAGUGAACCAGAGAAACACACGUUGUGGUAUACUACCUGGUA [U9A U62C],0.249
12,GUCCUCUUUGACGUGCGCGUGAAAGUGAGAAGUGAACCAGAGAAACACACGUUGUGGUAUAUUACCUGGUA [C10G A26U],0.352
13,GUCCUUUUUCACGUGCGCGUGAAAGAUAGAAGUGAACCAGAGAAACACACGUUGUGGUAUAUUACCUGGUA [C6U G27U],0.147
14,GUCCUCUUUCACGUGCGCGUGAGAGAGAGAAGUGAACCAGAGAAACACACGUUGUGGUAAAUUACCUGGUA [A23G U60A],0.694
15,GUCCUCUUUCACGUGCGCGUGAAAGAGAGAAGUGAACCAGAGAAACACACGUUGUGGCAUAUCACCUGGUA [U58C U63C],0.178
16,GUCCUCUUUCACGUGCGCGUGAAAGAGAGAAGUGAACCAGAGAAACCCACGUGGUGGUAUAUUACCUGGUA [A47C U53G],0.174
17,GUCCUCAUUCACGUGCGCGUGAAAGAGAGAAGCGAACCAGAGAAACACACGUUGUGGUAUAUUACCUGGUA [U7A U33C],0.151
18,GUCCUCUUUCACGUGCGCGUGAAAGAGAGAAGUGAACCAGAGAAACACACUUUGUGGUGUAUUACCUGGUA [G51U A59G],0.138
19,GUCCUCUUUCACGUGCGCGUGAAAGAGAGAAGUGAACCAGAGAAACACACGUUCUGGUUUAUUACCUGGUA [G54C A59U],0.18

row,Variant,self-cleavage
1,GUCCUCUUUCACGUGCGCGUGAAAGAGAGAAGUGAACCAAAGAAACACACGUUGUGGAAUAUUACCUGGUA [G40A U58A],0.134
2,GUCCUCUUUCACGGGCGCGUGAAAGAGAGAAGUGAACCAGAGAAACACACGUUGUGGUAUCUUACCUGGUA [U14G A61C],0.257
3,GUCCUCUUUCACGUGCGCGUGAAAGAGAGAAGUGAACCAGAGCAACACACGUUGUGGUAAAUUACCUGGUA [A43C U60A],0.162
4,GUCCUCUUUCACGUGCGCGUGAAGGAGAGAAGUGAACCAGAGAAACACACGUUAUGGUAUAUUACCUGGUA [A24G G54A],0.387
5,GUCCUCUUUCACGUGCGCGUGAAAGAGAGAAGUGAACCGGACAAACACACGUUGUGGUAUAUUACCUGGUA [A39G G42C],0.129
6,GUCCUCUUUCACGUCCGCGUGAAAGAGAGAAGUGAACCAGAGAAACACACGUUGUGGUAUAUUAUCUGGUA [G15C C65U],0.352
7,GUCCUUUUUCACGUGCGCGUGAGAGAGAGAAGUGAACCAGAGAAACACACGUUGUGGUAUAUUACCUGGUA [C6U A23G],0.768
8,GUCCUCUUUCACGUGCGCGUGAAACAGAGUAGUGAACCAGAGAAACACACGUUGUGGUAUAUUACCUGGUA [G25C A30U],0.116
9,GUCCUCUUUCACGUGCGUGUGAAAGAGAGAAGUGAACCAGAGAAACACACGUUGUUGUAUAUUACCUGGUA [C18U G56U],0.115
10,GUCCUCUUUCACGUGCGCGUGAAAGAGAGAAGUGAACCAGAGAAACACUCGUUGUGGUAUAUUACCUGCUA [A49U G69C],0.139
11,GGCCUCUUUCACGUGCGCGUGAAAGAGAGAAGUGAACCAGAGAAACUCACGUUGUGGUAUAUUACCUGGUA [U2G A47U],0.0492
12,GUCCUCUUUCACGUGUGCGUGAAAGAGAGAAGUGAACCAGAGAAACACACGUUAUGGUAUAUUACCUGGUA [C16U G54A],0.518
13,GUCCUCUUUCACGUGCGCGUGAAAGAGAGAAGUGAACCAGAGAAACAGACGUUGUGGUAGAUUACCUGGUA [C48G U60G],0.108
14,GUCCUCGUUCACGUGCGCGUGAAAGAGAGAAGUGAACCAGAGAAAAACACGUUGUGGUAUAUUACCUGGUA [U7G C46A],0.0994
15,GUCCUCUUUCACGGGCGCGUGAAAGAGAGAAGUCAACCAGAGAAACACACGUUGUGGUAUAUUACCUGGUA [U14G G34C],1.52
16,GUCCUCUUUCACGUGCGCGUGAACGAGAGAAGUGAACCAGAGAAACACACGUUGUGGUAUAUUGCCUGGUA [A24C A64G],0.503
17,GUCCUCUUUUACGUGCGCGUGAAAGAGAGACGUGAACCAGAGAAACACACGUUGUGGUAUAUUACCUGGUA [C10U A31C],0.135
18,GUCCUCUUUCACGUGCGCGUGAAAGAGAGAAGUGAACCAGAGCAACACACGCUGUGGUAUAUUACCUGGUA [A43C U52C],0.109
19,GUCUUCUUUCACGUGCGCGUGAAAGAGAGAAGUGAACCAGAGAAACACACGUUGAGGUAUAUUACCUGGUA [C4U U55A],0.0732
